The Human Domainome abundance scans (Beltran et al. 2025)
± gives the uncertainty stated by the source.

B1: Zinc finger homeobox protein 3, residues 2147 to 2202; numbered along this chain, Q15911 (parent)
chain: RPRTRITDDQLRVLRQYFDINNSPSEEQIKEMADKSGLPQKVIKHWFRNTLFKERQ

Variants of: B1
Assay: abundance fitness (aPCA) (normalised: wild type 0, dead -1); higher = more abundant; growth selection in yeast, the domain comes from the species named
Conditions: Homo sapiens
In the case of RPRTRITDDQLRVLRQYFDINNSPSEEQIKEMADKSGLPQKVIKHMFRNTLFKERQ [W46M], the abundance fitness is reported as -0.429 ± 0.15. In the case of RPRTRITDDQLRVLRQYFDINNSPSEEQIKEMADKSGLPQKVIKHQFRNTLFKERQ [W46Q], the abundance fitness is reported as -0.576 ± 0.14. RPRTRITDDQLRVLRQYFDINNSPSEEQIKEMADKSGLPQKVIKHDFRNTLFKERQ [W46D] showed an abundance fitness of -0.361 ± 0.41. Work on RPRTRITDDQLRVLRQYFDINNSPSEEQIKEMADKSGLPQKVIKHNFRNTLFKERQ [W46N] yielded an abundance fitness of -0.561 ± 0.19. In the case of RPRTRITDDQLRVLRQYFDINNSPSEEQIKEMADKSGLPQKVIKHPFRNTLFKERQ [W46P], the abundance fitness is reported as -0.812 ± 0.2. With RPRTRITDDQLRVLRQYFDINNSPSEEQIKEMADKSGLPQKVIKHVFRNTLFKERQ [W46V] the abundance fitness was -0.177 ± 0.11. Work on RPRTRITDDQLRVLRQYFDINNSPSEEQIKEMADKSGLPQKVIKHKFRNTLFKERQ [W46K] yielded an abundance fitness of -0.738 ± 0.14. With RPRTRITDDQLRVLRQYFDINNSPSEEQIKEMADKSGLPQKVIKHTFRNTLFKERQ [W46T] the abundance fitness was -0.555 ± 0.16. RPRTRITDDQLRVLRQYFDINNSPSEEQIKEMADKSGLPQKVIKHEFRNTLFKERQ [W46E] showed an abundance fitness of -0.348 ± 0.17. Work on RPRTRITDDQLRVLRQYFDINNSPSEEQIKEMADKSGLPQKVIKHRFRNTLFKERQ [W46R] yielded an abundance fitness of -0.812 ± 0.093. RPRTRITDDQLRVLRQYFDINNSPSEEQIKEMADKSGLPQKVIKHFFRNTLFKERQ [W46F] gave an abundance fitness of -0.163 ± 0.18. RPRTRITDDQLRVLRQYFDINNSPSEEQIKEMADKSGLPQKVIKHAFRNTLFKERQ [W46A] gave an abundance fitness of -0.63 ± 0.13. RPRTRITDDQLRVLRQYFDINNSPSEEQIKEMADKSGLPQKVIKHCFRNTLFKERQ [W46C] gave an abundance fitness of -0.524 ± 0.14. For RPRTRITDDQLRVLRQYFDINNSPSEEQIKEMADKSGLPQKVIKHSFRNTLFKERQ [W46S], the abundance fitness was -0.83 ± 0.13. Variant RPRTRITDDQLRVLRQYFDINNSPSEEQIKEMADKSGLPQKVIKHIFRNTLFKERQ [W46I] has an abundance fitness of -0.118 ± 0.2. For RPRTRITDDQLRVLRQYFDINNSPSEEQIKEMADKSGLPQKVIKHYFRNTLFKERQ [W46Y], the abundance fitness was -0.439 ± 0.21. In the case of RPRTRITDDQLRVLRQYFDINNSPSEEQIKEMADKSGLPQKVIKHWRRNTLFKERQ [F47R], the abundance fitness is reported as -0.858 ± 0.1. RPRTRITDDQLRVLRQYFDINNSPSEEQIKEMADKSGLPQKVIKHWMRNTLFKERQ [F47M] gave an abundance fitness of -0.242 ± 0.17. In the case of RPRTRITDDQLRVLRQYFDINNSPSEEQIKEMADKSGLPQKVIKHWDRNTLFKERQ [F47D], the abundance fitness is reported as -0.819 ± 0.19. RPRTRITDDQLRVLRQYFDINNSPSEEQIKEMADKSGLPQKVIKHWNRNTLFKERQ [F47N] gave an abundance fitness of -0.526 ± 0.24. Work on RPRTRITDDQLRVLRQYFDINNSPSEEQIKEMADKSGLPQKVIKHWKRNTLFKERQ [F47K] yielded an abundance fitness of -0.774 ± 0.17. Variant RPRTRITDDQLRVLRQYFDINNSPSEEQIKEMADKSGLPQKVIKHWPRNTLFKERQ [F47P] has an abundance fitness of -0.912 ± 0.16. With RPRTRITDDQLRVLRQYFDINNSPSEEQIKEMADKSGLPQKVIKHWLRNTLFKERQ [F47L] the abundance fitness was -0.211 ± 0.09. RPRTRITDDQLRVLRQYFDINNSPSEEQIKEMADKSGLPQKVIKHWARNTLFKERQ [F47A] gave an abundance fitness of -0.482 ± 0.094. RPRTRITDDQLRVLRQYFDINNSPSEEQIKEMADKSGLPQKVIKHWQRNTLFKERQ [F47Q] showed an abundance fitness of -0.801 ± 0.18. Variant RPRTRITDDQLRVLRQYFDINNSPSEEQIKEMADKSGLPQKVIKHWHRNTLFKERQ [F47H] has an abundance fitness of -0.699 ± 0.16. Variant RPRTRITDDQLRVLRQYFDINNSPSEEQIKEMADKSGLPQKVIKHWCRNTLFKERQ [F47C] has an abundance fitness of -0.169 ± 0.11. For RPRTRITDDQLRVLRQYFDINNSPSEEQIKEMADKSGLPQKVIKHWIRNTLFKERQ [F47I], the abundance fitness was -0.265 ± 0.18. In the case of RPRTRITDDQLRVLRQYFDINNSPSEEQIKEMADKSGLPQKVIKPWFRNTLFKERQ [H45P], the abundance fitness is reported as -0.377 ± 0.11. RPRTRITDDQLRVLRQYFDINNSPSEEQIKEMADKSGLPQKVIKAWFRNTLFKERQ [H45A] gave an abundance fitness of 0.039 ± 0.077. For RPRTRITDDQLRVLRQYFDINNSPSEEQIKEMADKSGLPQKVIKFWFRNTLFKERQ [H45F], the abundance fitness was 0.009 ± 0.14. Variant RPRTRITDDQLRVLRQYFDINNSPSEEQIKEMADKSGLPQKVIKKWFRNTLFKERQ [H45K] has an abundance fitness of 0.141 ± 0.11. Variant RPRTRITDDQLRVLRQYFDINNSPSEEQIKEMADKSGLPQKVIKGWFRNTLFKERQ [H45G] has an abundance fitness of 0.007 ± 0.085. For RPRTRITDDQLRVLRQYFDINNSPSEEQIKEMADKSGLPQKVIKVWFRNTLFKERQ [H45V], the abundance fitness was 0.015 ± 0.078. Variant RPRTRITDDQLRVLRQYFDINNSPSEEQIKEMADKSGLPQKVIKEWFRNTLFKERQ [H45E] has an abundance fitness of 0.106 ± 0.099. Work on RPRTRITDDQLRVLRQYFDINNSPSEEQIKEMADKSGLPQKVIKYWFRNTLFKERQ [H45Y] yielded an abundance fitness of -0.036 ± 0.12. For RPRTRITDDQLRVLRQYFDINNSPSEEQIKEMADKSGLPQKVIKQWFRNTLFKERQ [H45Q], the abundance fitness was 0.085 ± 0.1. Work on RPRTRITDDQLRVLRQYFDINNSPSEEQIKEMADKSGLPQKVIKDWFRNTLFKERQ [H45D] yielded an abundance fitness of 0.109 ± 0.12. Variant RPRTRITDDQLRVLRQYFDINNSPSEEQIKEMADKSGLPQKVIKRWFRNTLFKERQ [H45R] has an abundance fitness of -0.052 ± 0.091. With RPRTRITDDQLRVLRQYFDINNSPSEEQIKEMADKSGLPQKVIKLWFRNTLFKERQ [H45L] the abundance fitness was -0.032 ± 0.079. In the case of RPRTRITDDQLRVLRQYFDINNSPSEEQIKEMADKSGLPQKVIKCWFRNTLFKERQ [H45C], the abundance fitness is reported as -0.194 ± 0.12. RPRTRITDDQLRVLRQYFDINNSPSEEQIKEMADKSGLPQKVIKIWFRNTLFKERQ [H45I] showed an abundance fitness of -0.09 ± 0.13. Variant RPRTRITDDQLRVLRQYFDINNSPSEEQIKEMADKSGLPQKVIKMWFRNTLFKERQ [H45M] has an abundance fitness of 0.029 ± 0.1. For RPRTRITDDQLRVLRQYFDINNSPSEEQIKEMADKSGLPQKVIKWWFRNTLFKERQ [H45W], the abundance fitness was 0.028 ± 0.099. Work on RPRTRITDDQLRVLRQYFDINNSPSEEQIKEMADKSGLPQKVIKSWFRNTLFKERQ [H45S] yielded an abundance fitness of 0.028 ± 0.086. Variant RPRTRITDDQLRVLRQYFDINNSPSEEQIKEMADKSGLPQKVIWHWFRNTLFKERQ [K44W] has an abundance fitness of -0.176 ± 0.1. RPRTRITDDQLRVLRQYFDINNSPSEEQIKEMADKSGLPQKVIYHWFRNTLFKERQ [K44Y] gave an abundance fitness of -0.354 ± 0.18.
